Where two headings read alike, the source gives them in different places.

Some targets named below: MMP8 (human, UniProt P22894 101-467, limits assumed); MMP13 (human, UniProt P45452 104-471, limits assumed); MMP9 (human, UniProt P14780 107-707, limits assumed); MMP3 (human, UniProt P08254 100-477, limits assumed).
What all share (experiment): cell-based or functional assay
The target in another assay is T1, ADAMTS5 (human, UniProt Q9UNA0 262-622, limits assumed).
T1 sequence (looked up): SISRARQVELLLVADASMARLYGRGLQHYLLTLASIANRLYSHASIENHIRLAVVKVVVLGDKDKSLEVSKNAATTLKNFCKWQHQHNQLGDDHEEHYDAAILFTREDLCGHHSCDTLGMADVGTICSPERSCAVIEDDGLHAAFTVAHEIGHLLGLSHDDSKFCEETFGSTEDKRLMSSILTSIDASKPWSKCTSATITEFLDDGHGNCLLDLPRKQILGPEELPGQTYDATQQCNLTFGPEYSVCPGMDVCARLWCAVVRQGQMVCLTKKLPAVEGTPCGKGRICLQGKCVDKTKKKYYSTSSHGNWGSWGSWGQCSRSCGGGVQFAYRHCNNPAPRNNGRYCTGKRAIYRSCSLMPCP

A further assay has as its target T2, MMP1 (human, UniProt P03956 100-469, limits assumed).
T2 sequence (looked up): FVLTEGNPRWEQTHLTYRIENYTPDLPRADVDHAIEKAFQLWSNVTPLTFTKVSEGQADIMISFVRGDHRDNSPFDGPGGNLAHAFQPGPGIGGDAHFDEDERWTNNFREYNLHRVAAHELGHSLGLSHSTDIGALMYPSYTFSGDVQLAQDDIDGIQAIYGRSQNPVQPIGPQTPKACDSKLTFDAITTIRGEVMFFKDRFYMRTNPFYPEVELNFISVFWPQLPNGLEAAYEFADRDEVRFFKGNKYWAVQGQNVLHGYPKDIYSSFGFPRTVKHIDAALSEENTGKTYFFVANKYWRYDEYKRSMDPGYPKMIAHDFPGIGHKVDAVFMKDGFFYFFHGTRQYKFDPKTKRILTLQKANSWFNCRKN

Another assay has as its target T3, MMP2 (human, UniProt P08253 110-660, limits assumed).
T3 sequence (looked up): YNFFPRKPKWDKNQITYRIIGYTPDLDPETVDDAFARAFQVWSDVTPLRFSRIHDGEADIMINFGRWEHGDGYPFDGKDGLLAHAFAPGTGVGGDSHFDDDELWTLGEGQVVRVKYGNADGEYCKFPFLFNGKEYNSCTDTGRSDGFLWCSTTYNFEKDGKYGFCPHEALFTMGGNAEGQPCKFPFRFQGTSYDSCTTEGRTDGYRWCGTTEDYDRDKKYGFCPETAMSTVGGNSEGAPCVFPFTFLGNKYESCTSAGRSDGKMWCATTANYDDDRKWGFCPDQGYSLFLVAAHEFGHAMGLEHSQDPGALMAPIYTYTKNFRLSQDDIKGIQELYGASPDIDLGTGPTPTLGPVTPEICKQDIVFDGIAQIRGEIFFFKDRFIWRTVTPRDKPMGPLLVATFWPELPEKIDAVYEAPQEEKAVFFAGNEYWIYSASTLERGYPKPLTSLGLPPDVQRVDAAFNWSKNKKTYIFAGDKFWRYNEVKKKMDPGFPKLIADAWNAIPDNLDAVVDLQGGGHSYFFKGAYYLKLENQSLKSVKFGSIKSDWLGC

For assay [1], the target named is Elastase.
Assay [2] deals with T4, Cathepsin G (UniProt P08311 21-244).
T4 sequence (looked up): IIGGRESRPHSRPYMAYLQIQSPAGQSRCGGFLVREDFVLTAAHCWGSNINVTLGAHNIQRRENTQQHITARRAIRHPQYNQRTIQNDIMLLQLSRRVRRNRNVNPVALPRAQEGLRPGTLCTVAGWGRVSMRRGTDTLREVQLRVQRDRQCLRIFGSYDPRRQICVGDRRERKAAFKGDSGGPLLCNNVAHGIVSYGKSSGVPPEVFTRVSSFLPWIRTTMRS

In another assay the target is T5, MMP7 (UniProt P09237 95-267, limits assumed).
T5 sequence (looked up): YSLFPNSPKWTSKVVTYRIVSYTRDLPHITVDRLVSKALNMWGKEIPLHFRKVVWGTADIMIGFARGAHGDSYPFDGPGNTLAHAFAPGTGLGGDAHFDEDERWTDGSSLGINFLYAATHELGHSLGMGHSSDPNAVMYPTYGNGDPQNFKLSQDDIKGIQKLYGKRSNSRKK

In assay [3] the target is Elastase. This is another data set of the same source.
The target of assay [4] is T4, Cathepsin G. This is another data set of the same source.

Chain of MMP8 (P22894 101-467 limits assumed): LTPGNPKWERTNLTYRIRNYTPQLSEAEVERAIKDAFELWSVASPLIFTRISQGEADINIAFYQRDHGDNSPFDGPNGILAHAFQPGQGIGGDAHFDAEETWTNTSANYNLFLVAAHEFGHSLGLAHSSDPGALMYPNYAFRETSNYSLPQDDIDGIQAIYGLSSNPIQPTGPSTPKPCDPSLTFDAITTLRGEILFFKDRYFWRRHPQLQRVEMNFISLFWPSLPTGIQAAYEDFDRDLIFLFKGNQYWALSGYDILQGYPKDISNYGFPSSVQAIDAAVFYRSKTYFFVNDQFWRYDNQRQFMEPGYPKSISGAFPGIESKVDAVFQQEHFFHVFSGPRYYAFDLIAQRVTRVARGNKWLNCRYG
Chain of MMP3 (P08254 100-477 limits assumed): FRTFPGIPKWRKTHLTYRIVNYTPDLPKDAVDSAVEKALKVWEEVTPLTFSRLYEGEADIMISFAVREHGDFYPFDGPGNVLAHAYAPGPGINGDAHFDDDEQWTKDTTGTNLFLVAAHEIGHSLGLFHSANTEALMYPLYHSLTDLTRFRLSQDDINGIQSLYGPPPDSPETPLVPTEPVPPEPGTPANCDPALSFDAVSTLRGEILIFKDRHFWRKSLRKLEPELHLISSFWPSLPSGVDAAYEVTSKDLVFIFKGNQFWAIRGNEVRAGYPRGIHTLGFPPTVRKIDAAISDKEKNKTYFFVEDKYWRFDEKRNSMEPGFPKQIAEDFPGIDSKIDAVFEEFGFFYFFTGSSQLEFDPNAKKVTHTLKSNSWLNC
Chain of MMP9 (P14780 107-707 limits assumed): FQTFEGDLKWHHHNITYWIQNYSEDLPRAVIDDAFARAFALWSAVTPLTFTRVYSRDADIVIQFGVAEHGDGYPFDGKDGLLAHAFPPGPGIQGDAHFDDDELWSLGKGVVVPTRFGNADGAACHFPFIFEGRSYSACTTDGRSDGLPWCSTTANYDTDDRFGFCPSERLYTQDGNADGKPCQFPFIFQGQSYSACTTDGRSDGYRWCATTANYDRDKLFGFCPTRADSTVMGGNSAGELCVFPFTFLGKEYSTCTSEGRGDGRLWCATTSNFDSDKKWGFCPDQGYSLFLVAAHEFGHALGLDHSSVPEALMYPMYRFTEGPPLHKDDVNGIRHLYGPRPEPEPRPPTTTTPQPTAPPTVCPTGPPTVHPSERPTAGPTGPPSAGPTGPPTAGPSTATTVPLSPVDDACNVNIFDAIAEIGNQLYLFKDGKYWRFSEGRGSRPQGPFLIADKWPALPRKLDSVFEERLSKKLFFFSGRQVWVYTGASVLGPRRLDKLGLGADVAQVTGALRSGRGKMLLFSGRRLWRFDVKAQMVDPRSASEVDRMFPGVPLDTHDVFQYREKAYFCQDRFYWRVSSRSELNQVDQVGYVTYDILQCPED

B1: Variant A2M, bait region SEQ ID NO 29 (other)
chain: SVSGKPQYMVLVPSLLHTETTEKGCVLLSYLNETVTVSASLESVRGNRSLFTDLEAENDVLHCVAFAVPKSSSNEEVMFLTVQVKGPTQEFKKRTTVMVKNEDSLVFVQTDKSIYKPGQTVKFRVVSMDENFHPLNELIPLVYIQDPKGNRIAQWQSFQLEGGLKQFSFPLSSEPFQGSYKVVVQKKSGGRTEHPFTVEEFVLPKFEVQVTVPKIITILEEEMNVSVCGLYTYGKPVPGHVTVSICRKYSDASDCHGEDSQAFCEKFSGQLNSHGCFYQQVKTKVFQLKRKEYEMKLHTEAQIQEEGTVVELTGRQSSEITRTITKLSFVKVDSHFRQGIPFFGQVRLVDGKGVPIPNKVIFIRGNEANYYSNATTDEHGLVQFSINTTNVMGTSLTVRVNYKDRSPCYGYQWVSEEHEEAHHTAYLVFSPSKSFVHLEPMSHELPCGHTQTVQAHYILNGGTLLGLKKLSFYYLIMAKGGIVRTGTHGLLVKQEDMKGHFSISIPVKSDIAPVARLLIYAVLPTGDVIGDSAKYDVENCLANKVDLSFSPSQSLPASHAHLRVTAAPQSVCALRAVDQSVLLMKPDAELSASSVYNLLPEKDLTGFPGPLNDQDDEDCINRHNVYINGITYTPVSSTNEKDMYSFLEDMGLKAFTNSKIRKPKMCPQLEQPEGEGEGPRYLTAIPENFFGVSEDLVVQISELEGRGSVEEPHTKLRKYFPETWIWDLVVVNSAGVAEVGVTVPDTITEWKAGAFCLSEDAGLGISSTASLRAFQPFFVELTMPYSVIRGEAFTLKATVLNYLPKCIRVSVQLEASPAFLAVPVEKEQAPHCICANGRQTVSWAVTPKSLGNVNFTVSAEALESQELCGTEVPSVPEHGRKDTVIKPLLVEPEGLEKETTFNSLLCPSGGEVSEELSLKLPPNVVEESARASVSVLGDILGSAMQNTQNLLQMPYGCGEQNMVLFAPNIYVLDYLNETQQLTPEIKSKAIGYLNTGYQRQLNYKHYDGSYSTFGERYGRNQGNTWLTAFVLKTFAQARAYIFIDEAHITQALIWLSQRQKDNGCFRSSGSLLNNAIKGGVEDEVTLSAYITIALLEIPLTVTHPVVRNALFCLESAWKTAQEGDHGSHVYTKALLAYAFALAGNQDKRKEVLKSLNEEAVKKDNSVHWERPQKPKAPVGHFYEPQAPSAEVEMTSYVLLAYLTAQPAPTSEDLTSATNIVKWITKQQNAQGGFSSTQDTVVALHALSKYGAATFTRTGKAAQVTIQSSGTFSSKFQVDNNNRLLLQQVSLPELPGEYSMKVTGEGCVYLQTSLKYNILPEKEEFPFALGVQTLPQTCDEPKAHTSFQISLSVSYTGSRSASNMAIVDVKMVSGFIPLKPTVKMLERSNHVSRTEVSSNHVLIYLDKVSNQTLSLFFTVLQDVPVRDLKPAIVKVYDYYETDEFAIAEYNAPCSKDLGNADYKDDDDKGASHHHHHH
In the case of B1, the “Protease Inhibition (% of WT)” value with ADAMTS5 was 85 % of WT; with MMP1, 87 % of WT; with MMP8, 29 % of WT; with MMP13 it was 70 % of WT; in the assay with MMP2, 16 % of WT; with MMP9, 5 % of WT. The “Protease Inhibition (% of WT)” value with MMP3 is 101 % of WT; in the assay with Elastase [1], 98 % of WT; with Cathepsin G [2], 84 % of WT; in the assay with MMP7, 104 % of WT.

B2: Variant A2M, bait region SEQ ID NO 124 (other)
chain: SVSGKPQYMVLVPSLLHTETTEKGCVLLSYLNETVTVSASLESVRGNRSLFTDLEAENDVLHCVAFAVPKSSSNEEVMFLTVQVKGPTQEFKKRTTVMVKNEDSLVFVQTDKSIYKPGQTVKFRVVSMDENFHPLNELIPLVYIQDPKGNRIAQWQSFQLEGGLKQFSFPLSSEPFQGSYKVVVQKKSGGRTEHPFTVEEFVLPKFEVQVTVPKIITILEEEMNVSVCGLYTYGKPVPGHVTVSICRKYSDASDCHGEDSQAFCEKFSGQLNSHGCFYQQVKTKVFQLKRKEYEMKLHTEAQIQEEGTVVELTGRQSSEITRTITKLSFVKVDSHFRQGIPFFGQVRLVDGKGVPIPNKVIFIRGNEANYYSNATTDEHGLVQFSINTTNVMGTSLTVRVNYKDRSPCYGYQWVSEEHEEAHHTAYLVFSPSKSFVHLEPMSHELPCGHTQTVQAHYILNGGTLLGLKKLSFYYLIMAKGGIVRTGTHGLLVKQEDMKGHFSISIPVKSDIAPVARLLIYAVLPTGDVIGDSAKYDVENCLANKVDLSFSPSQSLPASHAHLRVTAAPQSVCALRAVDQSVLLMKPDAELSASSVYNLLPEKDLTGFPGPLNDQDDEDCINRHNVYINGITYTPVSSTNEKDMYSFLEDMGLKAFTNSKIRKPKMCPQLEQYEMHGPKEEEGLGSSELEGRGSEAIPMSIPTIPENFFGVVEEPHTKLRKYFPETWIWDLVVVNSAGVAEVGVTVPDTITEWKAGAFCLSEDAGLGISSTASLRAFQPFFVELTMPYSVIRGEAFTLKATVLNYLPKCIRVSVQLEASPAFLAVPVEKEQAPHCICANGRQTVSWAVTPKSLGNVNFTVSAEALESQELCGTEVPSVPEHGRKDTVIKPLLVEPEGLEKETTFNSLLCPSGGEVSEELSLKLPPNVVEESARASVSVLGDILGSAMQNTQNLLQMPYGCGEQNMVLFAPNIYVLDYLNETQQLTPEIKSKAIGYLNTGYQRQLNYKHYDGSYSTFGERYGRNQGNTWLTAFVLKTFAQARAYIFIDEAHITQALIWLSQRQKDNGCFRSSGSLLNNAIKGGVEDEVTLSAYITIALLEIPLTVTHPVVRNALFCLESAWKTAQEGDHGSHVYTKALLAYAFALAGNQDKRKEVLKSLNEEAVKKDNSVHWERPQKPKAPVGHFYEPQAPSAEVEMTSYVLLAYLTAQPAPTSEDLTSATNIVKWITKQQNAQGGFSSTQDTVVALHALSKYGAATFTRTGKAAQVTIQSSGTFSSKFQVDNNNRLLLQQVSLPELPGEYSMKVTGEGCVYLQTSLKYNILPEKEEFPFALGVQTLPQTCDEPKAHTSFQISLSVSYTGSRSASNMAIVDVKMVSGFIPLKPTVKMLERSNHVSRTEVSSNHVLIYLDKVSNQTLSLFFTVLQDVPVRDLKPAIVKVYDYYETDEFAIAEYNAPCSKDLGNADYKDDDDKGASHHHHHH
Consider B2, for which the “Protease Inhibition (% of WT)” value in the assay with Elastase [3] was 75 % of WT; with Cathepsin G [4], 250 % of WT.

The values are drawn from US20230250154A1 (CYTONICS, published 2023).
